Where a chain is given by its changes, count along the chain named.
B1: A10.min5 (ssRNA)
RNA: GGAGCAUACACAAGAAGUUUUUUGUGCUCUGAGUACUCAGCGUCCGUAAGGGAUAUGCUCC
modifications: 2'-F all C and U (rRfY)
B2: B10.min4 (ssRNA)
RNA: GGAGCAUACACAAGAAGUGCUUCAUGCGGCAAACUGCAUGACGUCGAAUAGAUAUGCUCC
modifications: 2'-F all C and U (rRfY)
B3: F11.min2 (ssRNA)
RNA: GGACAUACACAAGAUGUGCUUGAGUUAAAUCUCAUCGUCCCCGUUUGGGGAUAUGUC
modifications: 2'-F all C and U (rRfY)
B4: AMX86-G10 (ssRNA)
RNA: GGGAAAAGCGAAUCAUACACAAGAGUCAUGGCUUACAAUUGAAACAAGAGCUCGCGUGACACAUGCUCCGCCAGAGACCAACCGAGAA
modifications: 2'-F all C and U (rRfY)
B5: AMX91-B8 (ssRNA)
RNA: GGGAAAAGCGAAUCAUACACAAGAAUCCUGGCUUCGCAUAGUGUAUGGGUAGUACGACAGCGCGUGCUCCGCCAGAGACCAACCGAGAA
modifications: 2'-F all C and U (rRfY)
B6: AMX86-D11 (ssRNA)
RNA: GGGAAAAGCGAAUCAUACACAAGAUAGCGUCUAUGAUGGCGGAGAAGCAAGUGUAGCAUAACAGGCUCCGCCAGAGACCAACCGAGAA
modifications: 2'-F all C and U (rRfY)
B7: AMX84-C11 (ssRNA)
RNA: GGGAAAAGCGAAUCAUACACAAGAAUGGUCGGAAUCUCUGGCGCCACGCUGAGUAUAGACGGAAGCUCCGCCAGAGACCAACCGAGAA
modifications: 2'-F all C and U (rRfY)
B8: ARC1622 (mixed)
RNA: ACAGGCAAGUAAUUGGGGAGUGCGGGCGGGGUGU
modifications: 2'-OMe C,U and G16,G17,G24,G25,G30,G31; other A,G deoxy; PS 6-7,7-8,8-9,10-11,11-12,14-15; 3'-idT [PS 6-7,7-8,8-9,10-11,11-12,14-15; 2'-OMe at 2,6,10,13,14,16,17,21,23,24,25,27,30,31,32,34; other A,G deoxy; 3'-inverted dT at 35]
B9: ARC1626 (mixed)
RNA: B8 RNA
modifications: 2'-OMe C,U and G16,G17,G24,G25,G30,G31; other A,G deoxy; multiple PS; 3'-idT [2'-OMe C2,C6,U10,U13,U14,G16,G17,U21,C23,G24,G25,C27,G30,G31,U32,U34; other A,G deoxy; PS 2-3,3-4,4-5,6-7,7-8,8-9,10-11,11-12,14-15,17-18,18-19,19-20,21-22,25-26,27-28,28-29,32-33 (N = PS linkage, left out); 3'-inverted dT 35]
B10: ARC1623 (mixed)
RNA: B8 RNA
modifications: 2'-OMe C,U and G16,G17,G24,G25,G30,G31; other A,G deoxy; PS 17-18,18-19,19-20,21-22; 3'-idT [2'-OMe C2,C6,U10,U13,U14,G16,G17,U21,C23,G24,G25,C27,G30,G31,U32,U34; other A,G deoxy; PS 17-18,18-19,19-20,21-22 (N = PS linkage, left out); 3'-inverted dT 35]
B11: ARC1755 (mixed)
RNA: B8 RNA
modifications: 2'-OMe C,U and most purines; PS 2-3,6-7,11-12,14-15; 3'-idT [2'-OMe C2,C6,U10,U13,U14,U21,C23,C27,U32,U34 and most purines (positions not stated); PS 2-3,6-7,11-12,14-15 (N = PS linkage, left out); 3'-inverted dT 35]
B12: ARC490 (mixed)
RNA: GGGAGAGGAGAGAACGUUCUACAGCCUUUUGGGUAAGGGGAGGGGUGCCGGUCGCUGUCGAUCGAUCGAUCGAUG
modifications: 2'-deoxy A and G, 2'-OMe C and U (dRmY)
B13: ARC489 (mixed)
RNA: GGGAGAGGAGAGAACGUUCUACAGCGCCGGUGGGCGGGCAUUGGGUGGAUGCGCUGUCGAUCGAUCGAUCGAUG
modifications: 2'-deoxy A and G, 2'-OMe C and U (dRmY)
B14: ARC491 (mixed)
RNA: B13 RNA with C35U, U42A
modifications: 2'-deoxy A and G, 2'-OMe C and U (dRmY)
B15: rRmY clone SEQ 83 (ssRNA)
RNA: GGGAGAGGAGAGAACGUUCUACGCAGGCUGUCGUAGACAAACGAUGAAGUCGCGCUGUCGAUCGAUCGAUCGAUG
modifications: 2'-OMe all C and U (rRmY)
B16: rRmY clone SEQ 80 (ssRNA)
RNA: GGGAGAGGAGAGAACGUUCUACAAGAUAUAAUUAAGGAUAAGUGCAAAGGAGACGCUGUCGAUCGAUCGAUCGAUG
modifications: 2'-OMe all C and U (rRmY)
B17: rRmY clone SEQ 76 (ssRNA)
RNA: GGGAGAGGAGAGAACGUUCUACAACAAAGCAGGCUCAUAGUAAUAUGGAAGUCGCUGUCGAUCGAUCGAUCGAUG
modifications: 2'-OMe all C and U (rRmY)
B18: rRmY clone SEQ 88 (ssRNA)
RNA: GGGAGAGGAGAGAACGUUCUACAUAAGCAGGCUCCGAUAGUAUUCGGGAAGUCGCUGUCGAUCGAUCGAUCGAUG
modifications: 2'-OMe all C and U (rRmY)

These binders were tested against T1, IL-23 (human, p19/p40 heterodimer) (Homo sapiens, UniProt Q9NPF7;P29460 SEQ:20-189,SEQ:23-328) (assay: filter; 0.1 mg/mL tRNA, 30 min RT). Details: tags: R&D Systems, carrier free; label: 5'-32P.
T1 sequence (Q9NPF7 20-189, chain 1 of 2): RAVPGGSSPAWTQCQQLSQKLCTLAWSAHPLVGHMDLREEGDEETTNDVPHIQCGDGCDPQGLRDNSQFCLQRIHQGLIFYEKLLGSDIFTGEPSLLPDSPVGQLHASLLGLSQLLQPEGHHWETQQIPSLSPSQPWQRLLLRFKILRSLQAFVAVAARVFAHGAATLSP
T1 sequence (P29460 23-328, chain 2 of 2): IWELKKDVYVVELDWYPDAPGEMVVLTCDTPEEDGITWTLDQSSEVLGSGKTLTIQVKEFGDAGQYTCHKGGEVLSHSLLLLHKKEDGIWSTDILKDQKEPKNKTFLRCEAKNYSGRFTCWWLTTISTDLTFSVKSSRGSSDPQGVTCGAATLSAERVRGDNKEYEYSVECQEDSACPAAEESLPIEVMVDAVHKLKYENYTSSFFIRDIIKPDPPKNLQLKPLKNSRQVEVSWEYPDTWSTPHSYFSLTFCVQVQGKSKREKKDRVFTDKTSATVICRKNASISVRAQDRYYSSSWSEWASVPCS
Protocol: (§1) Monitoring Progress of rRfY Selection. Dot blot binding assays were performed throughout the selections to monitor the protein binding affinity of the pools. Trace ³²P-labeled RNA was combined with a dilution series of h-IL-23 and incubated at room temperature for 30 minutes in 1×SHMCK (20 mM Hepes, 120 mM NaCl, 5 mM KCl, 1 mM MgCl₂, 1 mM CaCl₂, pH 7.4) plus 0.1 mg/mL tRNA for a final volume of 20 μL. The binding reactions were analyzed by nitrocellulose filtration using a Minifold I dot-blot, 96-well vacuum filtration manifold (Schleicher & Schuell, Keene, N.H.). A three-layer filtration medium was used, consisting (from top to bottom) of Protran nitrocellulose (Schleicher & Schuell), Hybond-P nylon (Amersham Biosciences) and GB002 gel blot paper (Schleicher & Schuell). RNA that is bound to protein is captured on the nitrocellulose filter, whereas the non-protein bound RNA is captured on the nylon filter. The gel blot paper was included simply as a supporting medium for the other filters. Following filtration, the filter layers were separated, dried and exposed on a phosphor screen (Amersham Biosciences, Piscataway, N.J.) and quantified using a Storm 860 Phosphorimager® blot imaging system (Amersham Biosciences).

Row | Binder | Kd
1 | B1 | 0.0578 µM
2 | B2 | 0.0364 µM
3 | GGAGUACGCCGAAAGGCGCUUCCGAAAGGACGUCCGUAAGGGAUACUCC (ssRNA, 2'-F all C and U (rRfY)) [Type 1.5] | 0.0314 µM
4 | B3 | 0.065 µM

What follows are binders tested against T1, IL-23 (human, p19/p40 heterodimer) (assay: filter; 1X SHMCK, 1 mM Mg, 1 mM Ca, 0.1 mg/mL tRNA, RT). Details: tags: R&D Systems, carrier free; label: 5'-32P.
Protocol: as §1
(§2) When a significant positive ratio of binding of RNA in the presence of h-IL-23 versus in the absence of h-IL-23 was seen, the pools were cloned using a TOPO TA cloning kit (Invitrogen, Carlsbad, Calif.) according to the manufacturer's instructions. For the h-IL-23 and X-IL-23 selections, the Round 8 pool templates were cloned, and 32 individual clones from each selections were assayed in a 1-point dot blot screen (+/−75 nM h-IL-23, as well as a separate screen at +/−75 nM h-IL-12). For the PN-IL-23 selection, the Round 10 pool was cloned and sequenced, and 8 unique clones were assayed for protein binding in a 1-point dot blot screen (+/−200 nM h-IL-23 and a separate screen at +/−200 nM h-IL-12). Subsequently, the Round 10 PN-IL-23 pool was re-cloned for further sequences, as well as the R12 PN-IL-23 pool, and the clones were assayed for protein binding in a 1 point do blot screen (+/−100 nM h-IL-23 or +/−200 nM h-IL-12).

Row | Binder | Kd
5 | B4 | 0.0737 µM
6 | B5 | 0.0176 µM
7 | B6 | 0.199 µM
8 | B7 | 0.0155 µM

The binders below were run against T2, IL-12 (human, p35/p40 heterodimer) (Homo sapiens, UniProt P29459;P29460 SEQ:57-253,SEQ:23-328) (assay: filter; 1X SHMCK, 0.1 mg/mL tRNA, RT). Details: label: 5'-32P.
T2 sequence (P29459 23-219, chain 1 of 2): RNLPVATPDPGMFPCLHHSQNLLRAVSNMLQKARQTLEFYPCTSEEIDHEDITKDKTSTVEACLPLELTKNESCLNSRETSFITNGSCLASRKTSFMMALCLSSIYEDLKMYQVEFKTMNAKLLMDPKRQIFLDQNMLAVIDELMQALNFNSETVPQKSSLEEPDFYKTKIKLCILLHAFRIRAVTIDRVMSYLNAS
T2 sequence (P29460 23-328, chain 2 of 2): as the sequence (P29460 23-328, chain 2 of 2) above
Protocol: as §1, §2

Row | Binder | Kd
9 | B4 | 0.356 µM
10 | B5 | 0.409 µM
11 | B6 | 0.114 µM
12 | B7 | 0.286 µM

Each binder was assayed against T1, IL-23 (human, p19/p40 heterodimer) (assay: cell_activity; Pathscan pSTAT3). Details: tags: R&D Systems, carrier free.
Protocol: Inhibition of IL-23-induced STAT3 phosphorylation was measured using the Pathscan® Phospho-STAT3 (Tyr705) Sandwich ELISA Kit (Cell Signaling Technology, Beverly, Mass.).
Similar to the TransAM™ Assay method previously described, the Pathscan® Phospho-STAT3 (Tyr705) Sandwich ELISA Kit detects endogenous levels of Phospho-STAT3 (Tyr705) protein by using a STAT3 rabbit monoclonal antibody which has been coated onto the wells of a 96-well plate. After incubation with cell lysates, both nonphospho- and phospho-STAT3 proteins are captured by the coated antibody. A phospho-STAT3 mouse monoclonal antibody is added to detect the captured phospho-STAT3 protein, and an HRP-linked anti-mouse antibody is then used to recognize the bound detection antibody. HRP substrate, TMB, is added to develop color, and the magnitude of optical density for this developed color is proportional to the quantity of phospho-STAT3 protein.
PHA Blasts were isolated and prepared as described above and treated with hIL-23 at a final constant concentration of 6 ng/mL (R&D Systems, Minneapolis, Minn.) to induce STAT3 activation, instead of using 3 ng/mL as previously described with the TransAM™ assay. Clones were screened by using a 6-point […] titration from 0 to 700 nM in 3 fold dilutions in combination with a constant IL-23 concentration of 6 ng/mL of IL-23 (R&D Systems, Minneapolis, Minn.) to induce STAT3 activation, instead of using 3 ng/mL as previously described with the TransAM™ assay. Lysates of treated cells were prepared using the buffers provided by the Pathscan kit, and the assay was run according to the manufacturer's instructions. IC₅₀s for the full length clones were calculated from the dose response curves.

Row | Binder | IC50
13 | B8 | 0.009 µM
14 | B9 | 0.012 µM
15 | B10 | 0.005 µM
16 | B11 | 0.068 µM

Each binder was assayed against T2, IL-12 (human, p35/p40 heterodimer) (assay: filter; 1X PBS, tRNA, ssDNA, BSA, 30 min RT). Details: label: 32P.

Row | Binder | Kd
17 | B12 | 0.0371 µM
18 | B13 | 0.0172 µM
19 | B14 | 0.093 µM

These binders were tested against T1, IL-23 (human, p19/p40 heterodimer) (assay: filter; 1X PBS, tRNA, ssDNA, BSA, 30 min RT). Details: tags: R&D Systems, carrier free; label: 32P.

Row | Binder | Kd
20 | B12 | 0.026 µM
21 | B13 | 0.004 µM
22 | B14 | 0.0171 µM

These binders were tested against T1, IL-23 (human, p19/p40 heterodimer) (assay: filter; DPBS Ca Mg). Details: tags: R&D Systems, carrier free.
Protocol: The dot blot binding assay previously described was used to characterize the relative potency of the majority of the aptamers synthesized. For KD determination, chemically synthesized aptamers were purified using denaturing polyacrylamide gel electrophoresis, 5′end labeled with γ-³²P ATP and were tested for direct binding to full human IL-23. An 8 point protein titration was used in the dot blot binding assay (either {100 nM, 30 nM, 10 nM, 3 nM, 1 nM, 300 pM, 100 pM, 0 pM} or {10 nM, 3 nM, 1 nM, 300 pM, 100 pM, 30 pM, 10 pM, 0 pM}) in Dulbecco's PBS (with Mg⁺⁺ and Ca⁺⁺) with 0.1 mg/mL BSA. KD values were calculated by fitting the equation y=(max/(1+K/protein))+yint using KaleidaGraph (KaleidaGraph v. 3.51, Synergy Software). Sequences of the ARC979 derivatives synthesized, purified and assayed for binding to IL-23 as well as the results of the protein binding characterization are tabulated below in Tables 29 and 30.

Row | Binder | Kd
23 | B8 | 0.0003 µM
24 | B11 | 0.0008 µM

The binders below were run against T1, IL-23 (human, p19/p40 heterodimer) (assay: filter; DPBS with Ca and Mg, 0.1 mg/mL tRNA, 30 min RT). Details: tags: R&D Systems, carrier free; label: 32P.
Protocol: The selection progress was monitored using the dot blot sandwich filter binding assay as described in Example 1A. The 5′-³²P-labeled pool RNA was refolded at 90° C. for 3 minutes and cooled to room temperature for 10 minutes. Next, pool RNA (trace concentration) was incubated with h-IL-23 DPBS plus 0.1 mg/mL tRNA for 30 minutes at room temperature and then applied to a nitrocellulose and nylon filter sandwich in a dot blot apparatus (Schleicher and Schuell). The percentage of pool RNA bound to the nitrocellulose was calculated and monitored approximately every 3 rounds with a single point screen (+/−250 nM h-IL-23). Pool KD measurements were measured using a titration of h-IL-23 protein (R&D, Minneapolis, Minn.) and the dot blot apparatus as described above.
The rRmY h-IL-23 selection was enriched for h-IL-23 binding vs. the naïve pool after 4 rounds of selection (data not shown). The selection stringency was increased and the selection was continued for 8 more rounds. […] The rGmH selection was enriched over the naïve pool binding at Round 10. […] FIG. 7 is a binding curve of rRmY and rGmH pool selection binding to h-IL-23. The pools were cloned using TOPO TA cloning kit (Invitrogen, Carlsbad, Calif.) and individual sequences were generated and tested for binding. A single point binding screen was initially performed on all crude rRmY clone transcriptions using a 1:200 dilution, +/−200 nM IL-23, plus 0.1 mg/mL competitor tRNA. […] The 10 point screen was performed using zero to 480 nM IL-23 in 3 fold serial dilutions. Binding curves were generated (KaleidaGraph v. 3.51, Synergy Software) and KDs were estimated by fitting the data to the equation: fraction RNA bound=amplitude[h-IL-23]/KD+[h-IL-23]). […] There was one group of 6 duplicate sequences and 4 pairs of 2 duplicate sequences out of the rRmY clones generated. […] Clones were also tested from 48 crude rGmH clone transcriptions at a 1:200 dilution and 0.1 mg/mL tRNA was used as competitor.

Row | Binder | Kd
25 | B15 | 0.0082 µM
26 | B16 | 3.79 µM
27 | B17 | 0.0772 µM
28 | B18 | 0.101 µM
